In patent US20110256153A1 (IMMUNOGEN, published 2011):
“And” between values parts separate entries of the source, which are not always exact repeats. Equal entries are not always repeated. Each block holds one binder with its values, some of them ahead of it.

Legend:
[1] = molecular target: T1, hCD37-M45 (human/murine chimera, UniProt P11049 1-281); test: flow cytometry, 300-19 cells expressing hCD37-M45
T1 construct: stably expressed on 300-19 cells; also called hCD37-M45 variant
T1 chain: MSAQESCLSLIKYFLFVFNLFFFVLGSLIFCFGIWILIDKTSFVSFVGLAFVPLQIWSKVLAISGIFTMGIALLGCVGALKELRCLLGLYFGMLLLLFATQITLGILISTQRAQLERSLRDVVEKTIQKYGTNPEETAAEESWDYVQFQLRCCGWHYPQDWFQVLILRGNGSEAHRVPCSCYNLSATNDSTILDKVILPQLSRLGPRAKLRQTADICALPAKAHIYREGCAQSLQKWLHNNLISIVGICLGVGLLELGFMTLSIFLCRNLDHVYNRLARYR
Method: (§1) Binding specificity was tested by flow cytometry using purified antibodies. […] All murine antibodies were incubated for 3 h with either CD37-expressing 300-19 cells or the non-transfected 300-19 cells (1×10⁵ cells per sample) in 100 μL FACS buffer (RPMI-1640 medium supplemented with 2% normal goat serum). Then, the cells were pelleted, washed, and incubated for 1 h with 100 μL of FITC-conjugated goat anti-mouse IgG-antibody (Jackson Laboratory, 6 μg/mL in FACS buffer). The cells were pelleted again, washed with FACS buffer and resuspended in 200 μL of PBS containing 1% formaldehyde. Samples were acquired using a FACSCalibur flow cytometer with the HTS multiwell sampler or a FACS array flow cytometer and analyzed using CellQuest Pro (all from BD Biosciences, San Diego, US).
(§2) Binding of various CD37 antibodies to cells expressing human CD37 wildtype and variants was analyzed by flow cytometry using 1.5 μg/mL of each antibody. The isolated antibodies of this invention were compared to commercially available CD37 antibody WR17, as well as the TRU-016 SMIP. […] Likewise, all antibodies tested bound the hCD37-M3 variant (FIG. 18B). In contrast, the isolated antibodies of this invention bound the hCD37-M1 variant, while TRU-016 and WR17 were unable to bind hCD37-M1 variant (FIG. 19A). The CD37-50 and CD37-51 antibodies and TRU-016 were also able to bind the hCD37-M45 variant. […] In contrast, the CD37-3, CD37-12, CD37-38, CD37-56 and CD37-57 antibodies require at least one of the AA residues in the hCD37-M45 variant that were changed to the corresponding murine AA residues for binding to the CD37 antigen.

[2] = molecular target: T2, hCD37-M1 (human/murine chimera, UniProt P11049 1-281); test: flow cytometry, 300-19 cells expressing hCD37-M1, 1.5 µg/mL antibody
T2 construct: stably expressed on 300-19 cells; also called hCD37-M1 variant
T2 chain: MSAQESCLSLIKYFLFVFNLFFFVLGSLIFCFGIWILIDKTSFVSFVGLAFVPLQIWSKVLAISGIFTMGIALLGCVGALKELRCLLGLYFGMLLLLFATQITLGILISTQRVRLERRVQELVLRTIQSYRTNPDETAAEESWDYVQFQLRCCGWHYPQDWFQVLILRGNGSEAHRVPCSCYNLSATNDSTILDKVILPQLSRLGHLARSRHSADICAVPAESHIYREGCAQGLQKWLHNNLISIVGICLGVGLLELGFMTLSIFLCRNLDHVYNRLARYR
Method: as §1, §2

[3] = molecular target: T3, human CD37 (human, UniProt P11049 1-278); test: flow cytometry titration on BJAB cells; apparent Kd
T3 construct: Tetraspanin antigen; Expressed on 300-19 cells transfected with pSRa-CD37 (entire CDS) or endogenous on WSU-DLCL-2, BJAB and Ramos lymphoma cells; also called CD37 antigen; human CD37 wildtype
T3 sequence: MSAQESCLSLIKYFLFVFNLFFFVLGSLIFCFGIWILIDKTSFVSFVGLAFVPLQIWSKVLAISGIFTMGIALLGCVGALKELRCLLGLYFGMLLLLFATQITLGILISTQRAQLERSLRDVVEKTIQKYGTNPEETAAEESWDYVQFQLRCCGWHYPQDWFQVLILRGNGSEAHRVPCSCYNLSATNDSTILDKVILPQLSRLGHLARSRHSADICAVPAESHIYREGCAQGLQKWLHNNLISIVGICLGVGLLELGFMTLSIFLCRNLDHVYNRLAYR
Method: as §1
The humanized antibodies huCD37-38, huCD37-50, huCD37-51, huCD37-56 and chCD37-57 were assayed for their binding affinity to BJAB cells in comparison to their murine counterparts. Flow cytometry binding assays were carried out using secondary FITC-conjugated goat-anti-murine and -anti-human antibodies, analyzed as described in Example 2 and dose-response curves were generated by non-linear regression for each antibody. The value for the apparent dissociation constant (Kd) of each antibody was calculated using GraphPad Prism v4 (GraphPad software, San Diego, Calif.).

[4] = molecular target: T4, hCD37-M3 (human/murine chimera, UniProt P11049 1-281); test: flow cytometry, 300-19 cells expressing hCD37-M3, 1.5 µg/mL antibody
T4 construct: stably expressed on 300-19 cells; also called hCD37-M3 variant
T4 chain: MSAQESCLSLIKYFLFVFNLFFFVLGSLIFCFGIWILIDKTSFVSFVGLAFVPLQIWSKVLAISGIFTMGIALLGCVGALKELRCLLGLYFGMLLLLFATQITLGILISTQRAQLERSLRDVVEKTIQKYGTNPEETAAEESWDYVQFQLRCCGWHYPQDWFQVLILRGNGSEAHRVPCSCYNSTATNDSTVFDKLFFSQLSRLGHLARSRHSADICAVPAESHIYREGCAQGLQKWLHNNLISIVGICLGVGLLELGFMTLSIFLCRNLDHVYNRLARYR
Method: as §1, §2

[5] = molecular target: T5, macaque CD37 (macaque, UniProt P11049 1-277 (human entry)); test: flow cytometry, 300-19/CD37mac cells
T5 construct: Expressed on 300-19 cells transfected with pSRa-CD37mac (300-19/CD37mac cells); also called macaca CD37; macaque derived CD37 antigen
T5 chain: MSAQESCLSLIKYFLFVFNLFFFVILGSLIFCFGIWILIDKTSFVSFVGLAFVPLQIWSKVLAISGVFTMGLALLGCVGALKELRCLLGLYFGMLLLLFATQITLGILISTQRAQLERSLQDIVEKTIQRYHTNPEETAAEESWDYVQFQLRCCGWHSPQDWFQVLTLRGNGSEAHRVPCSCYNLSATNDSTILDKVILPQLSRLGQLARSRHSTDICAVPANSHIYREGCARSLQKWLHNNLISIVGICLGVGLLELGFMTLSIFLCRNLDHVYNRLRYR
Method: as §1
The murine antibodies muCD37-3, muCD37-12, muCD37-38, […], muCD37-51, muCD37-56 and muCD37-57 were assayed for their ability to bind to 300-19/CD37mac cells expressing macaque CD37. Flow cytometry binding assays were carried out using secondary FITC-conjugated goat-anti-murine or goat-anti-human antibodies, analyzed as described in Example 2. Binding was compared to the previously described anti-CD37 antibody WR17 and the anti-CD37 SMIP TRU-016. […] In contrast, muCD37-3, muCD37-12, the previously described anti-CD37 antibody WR17 and the anti-CD37 SMIP TRU-016 are unable to bind the macaque derived CD37 antigen.

[6] = molecular target: T3, human CD37; test: cell-based or functional assay
[7] = molecular target: T3, human CD37; test: flow cytometry titration on BJAB cells (FIG. 20A); apparent Kd
[8] = molecular target: T3, human CD37; test: competition flow cytometry on BJAB cells; competitor PE-labeled muCD37-3 (1 nM)
Method: Flow cytometry binding assays using BJAB cells and a competitive binding format were used to evaluate binding affinity of chimeric and humanized versions of CD37-3. BJAB cells were incubated with a 1 nM concentration of PE-labeled muCD37-3 antibody and competition was measured by adding varying amounts of muCD37-3, chCD37-3, huCD37-3v1.0 or huCD37-3v1.01. The samples were incubated for 3 hrs at 4° C. Then, the cells were pelleted, washed with FACS buffer and resuspended in 200 μL of PBS containing 1% formaldehyde. Samples were acquired using a FACSCalibur flow cytometer with the HTS multiwell sampler and analyzed using CellQuest Pro (all from BD Biosciences, San Diego, US). The resulting mean PE fluorescence was plotted against the amount of competing antibody used in a semi-log plot. FIG. 9B depicts the dose-response curves generated by non-linear regression for each antibody. The value for the apparent dissociation constant (Kd) of each antibody was calculated using GraphPad Prism v4 (GraphPad software, San Diego, Calif.).

binding result [1]: no binding (tested: 1.5 µg/mL)
binding result [2]: binds
Kd [3]: 0.4 nM
binding result [4]: binds
binding result [5]: binds
B1: muCD37-38 (antibody, mouse IgG1, kappa, V domains shown)
VH: DVQLQESGPDLVKPSQSLSLTCTVTGYSITSGFGWHWIRQFPGNKLEWMAYILYSGGTDYNPSLKSRISITRDTSKNQFFLRLSSVTTEDTATYYCARGYYGYGAWFVYWGQGTLVTVSA
VL: QIVLTQSPAIMSASPGEKVTMTCSASSSVTYMHWYQQKSGTSPKRWIYDTSKLASGVPARFSGGGSGTSYSLTISSMEAEDAATYYCQQWISNPPTFGGGTKLEIKR
notes: Murine hybridoma antibody

binding result [1]: no binding (tested: 1.5 µg/mL)
binding result [2]: binds
Kd [3]: 0.4 nM
binding result [4]: binds
binding result [5]: binds
B2: muCD37-56 (antibody, mouse IgG1, kappa, V domains shown)
VH: DVQLQESGPDLVKPSQSLSLTCTVTGYSITSGFAWHWIRQFPGNKLEWMGYIHYSGGTNYNPSLKSRVSITRDTSKNQFFLQLNSVTTEDTATYYCARGYYGFGAWFAYWGQGTLVPVSA
VL: QIVLTQSPAFMSASPGDKVTMTCSASSSVTYMHWYQQKSGTSPKRWIYDTSKLASGVPARFSGGGSGTSYSLTISTMEAEDAATYYCQQWISDPPTFGGGTKLEIKR
notes: Murine hybridoma antibody

binding result [1]: no binding (tested: 1.5 µg/mL)
binding result [2]: binds
Kd [3]: 1 nM
binding result [4]: binds
binding result [5]: binds
B3: muCD37-57 (antibody, mouse IgG2a, kappa, V domains shown)
VH: DVQLQESGPDLLKPSQSLSLTCTVTGYSITSGFAWHWIRQFPGNKLEWMGYILYSGSTVYSPSLKSRISITRDTSKNQFFLQLNSVTTEDTATYYCARGYYGYGAWFAYWGQGTLVTVSA
VL: QIVLTQSPAIMSASPGEKVTMTCSATSSVTYMHWYQQKSGTSPKRWIYDTSKLASGVPARFSGSGSGTSYSLTISSMEAEDAATYYCQQWSDNPPTFGSGTKLEIKR
notes: Murine hybridoma antibody

Kd [7]: 0.46 nM
B4: huCD37-3-SMCC-DM1 (antibody, human IgG1, kappa, V domains shown)
VH: QVQVQESGPGLVAPSQTLSITCTVSGFSLTTSGVSWVRQPPGKGLEWLGVIWGDGSTNYHPSLKSRLSIKKDHSKSQVFLKLNSLTAADTATYYCAKGGYSLAHWGQGTLVTVSS
VL: DIQMTQSPSSLSVSVGERVTITCRASENIRSNLAWYQQKPGKSPKLLVNVATNLADGVPSRFSGSGSGTDYSLKINSLQPEDFGTYYCQHYWGTTWTFGQGTKLEIKR
modifications: DM1 attached through SMCC linker; attachment residues not stated; 3.5-4 DM1 per antibody
notes: heavy chain version as for huCD37-3, see its note
EC50 of in vitro cytotoxicity, BJAB cells [6]: 0.041 nM and 0.019 nM
EC50 of in vitro cytotoxicity, Daudi cells [6]: 0.065 nM and 0.036 nM
EC50 of in vitro cytotoxicity, Namalwa cells [6]: 0.033 nM
EC50 of in vitro cytotoxicity, Raji cells [6]: 0.071 nM
EC50 of in vitro cytotoxicity, Raji-VCR cells [6]: 0.11 nM
EC50 of in vitro cytotoxicity, Ramos cells [6]: 0.16 nM
EC50 of in vitro cytotoxicity, SU-DHL-4 cells [6]: 0.031 nM
EC50 of in vitro cytotoxicity, WST-8 assay, Daudi cells [6]: 0.067 nM
EC50 of in vitro cytotoxicity, WST-8 assay, Granta-519 cells [6]: 0.047 nM

Kd [7]: 0.56 nM
B5: huCD37-3-SPP-DM1 (antibody, human IgG1, kappa, V domains shown)
VH: QVQVQESGPGLVAPSQTLSITCTVSGFSLTTSGVSWVRQPPGKGLEWLGVIWGDGSTNYHPSLKSRLSIKKDHSKSQVFLKLNSLTAADTATYYCAKGGYSLAHWGQGTLVTVSS
VL: DIQMTQSPSSLSVSVGERVTITCRASENIRSNLAWYQQKPGKSPKLLVNVATNLADGVPSRFSGSGSGTDYSLKINSLQPEDFGTYYCQHYWGTTWTFGQGTKLEIKR
modifications: DM1 attached through SPP linker; attachment residues not stated; 3.5-4 DM1 per antibody
notes: as for B4
EC50 of in vitro cytotoxicity, BJAB cells [6]: 0.11 nM
EC50 of in vitro cytotoxicity, Daudi cells [6]: 0.12 nM
EC50 of in vitro cytotoxicity, Granta-519 cells [6]: 0.13 nM

EC50 [8]: 1 nM
B6: huCD37-3v1.0 (antibody, human IgG1, kappa, V domains shown)
VH: QVQVQESGPGLVAPSQTLSITCTVSGFSLTTSGVSWVRQPPGKGLEWLGVIWGDGSTNYHPSLKSRLSIKKDHSKSQVFLKLNSLTAADTATYYCAKGGYSLAHWGQGTLVTVSS
VL: DIQMTQSPSSLSVSVGERVTITCRASENIRSNLAWYQQKPGKSPKLLVNVATNLADGVPSRFSGSGSGTDYSLKINSLQPEDFGTYYCQHYWGTTWTFGQGTKLEIKR
notes: Resurfaced (humanized) CD37-3, version 1.0

EC50 [8]: 0.6 nM
B7: huCD37-3v1.01 (antibody, human IgG1, kappa, V domains shown)
VH: QVQVQESGPGLVAPSQTLSITCTVSGFSLTTSGVSWVRQPPGKGLEWLGVIWGDGSTNYHSSLKSRLSIKKDHSKSQVFLKLNSLTAADTATYYCAKGGYSLAHWGQGTLVTVSS
VL: DIQMTQSPSSLSVSVGERVTITCRASENIRSNLAWYQQKPGKSPKLLVNVATNLADGVPSRFSGSGSGTDYSLKINSLQPEDFGTYYCQHYWGTTWTFGQGTKLEIKR
notes: also called huCD37-3v1.1
